Experiments:
[1] = target: T1, full-length human TRPML1 (transient receptor potential mucolipin 1) (human), Q9GZU1; assay: cryo-EM structure; conditions: remark: other sources report otherwise
T1 chain: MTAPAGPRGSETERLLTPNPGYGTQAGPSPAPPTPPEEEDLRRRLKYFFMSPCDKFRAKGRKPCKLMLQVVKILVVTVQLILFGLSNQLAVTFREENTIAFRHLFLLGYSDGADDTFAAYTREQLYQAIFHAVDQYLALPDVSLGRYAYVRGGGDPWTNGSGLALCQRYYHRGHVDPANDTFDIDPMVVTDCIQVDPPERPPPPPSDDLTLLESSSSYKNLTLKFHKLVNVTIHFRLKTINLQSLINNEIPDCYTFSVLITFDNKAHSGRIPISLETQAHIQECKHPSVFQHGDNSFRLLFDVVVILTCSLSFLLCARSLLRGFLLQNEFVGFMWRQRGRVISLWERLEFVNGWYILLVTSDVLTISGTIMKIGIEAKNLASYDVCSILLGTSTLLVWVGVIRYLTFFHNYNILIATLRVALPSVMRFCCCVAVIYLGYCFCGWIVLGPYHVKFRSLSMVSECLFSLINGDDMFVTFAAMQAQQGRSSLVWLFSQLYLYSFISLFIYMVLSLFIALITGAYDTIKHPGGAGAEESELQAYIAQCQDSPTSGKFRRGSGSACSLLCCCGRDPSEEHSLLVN

[2] = target: T1, full-length human TRPML1 (transient …); assay: cryo-EM structure; conditions: remark: other sources report otherwise

stoichiometry N [1]: 4
stoichiometry N [2]: 4
B1: full-length human TRPML1 (transient receptor potential mucolipin 1), Q9GZU1 1-580 (natural protein)
chain: T1 chain

From article PMC5920536
